The source of these data is patent publication US20140377289A1, “Metallodrugs Having Improved Pharmacological Properties, and Methods of Manufacture and Use Thereof” (MetalloPharm, LLC, priority 2011, published 2014).

Where no end group is shown, it is not given here.

The target of assay [1] is HCV protease (hepatitis C virus (HCV)). Description: affinity of metallopeptide for HCV protease; method not described.
Assay [2] deals with Recombinant human somatic ACE (sACE-1: Leu30-Leu1261, with C-terminal His tag) (human) (UniProt P12821). Description: affinity calculated from the IC50 of sACE-1 inhibition (fluorogenic substrate cleavage, 37 C, pH 7.4).
For assay [3] the target is unchanged. The assay can be described thus: cell-based or functional assay.

Sequence of Recombinant human somatic ACE (sACE-1: Leu30-Leu1261, with C-terminal His tag) (human) (P12821 30-1261 limits assumed): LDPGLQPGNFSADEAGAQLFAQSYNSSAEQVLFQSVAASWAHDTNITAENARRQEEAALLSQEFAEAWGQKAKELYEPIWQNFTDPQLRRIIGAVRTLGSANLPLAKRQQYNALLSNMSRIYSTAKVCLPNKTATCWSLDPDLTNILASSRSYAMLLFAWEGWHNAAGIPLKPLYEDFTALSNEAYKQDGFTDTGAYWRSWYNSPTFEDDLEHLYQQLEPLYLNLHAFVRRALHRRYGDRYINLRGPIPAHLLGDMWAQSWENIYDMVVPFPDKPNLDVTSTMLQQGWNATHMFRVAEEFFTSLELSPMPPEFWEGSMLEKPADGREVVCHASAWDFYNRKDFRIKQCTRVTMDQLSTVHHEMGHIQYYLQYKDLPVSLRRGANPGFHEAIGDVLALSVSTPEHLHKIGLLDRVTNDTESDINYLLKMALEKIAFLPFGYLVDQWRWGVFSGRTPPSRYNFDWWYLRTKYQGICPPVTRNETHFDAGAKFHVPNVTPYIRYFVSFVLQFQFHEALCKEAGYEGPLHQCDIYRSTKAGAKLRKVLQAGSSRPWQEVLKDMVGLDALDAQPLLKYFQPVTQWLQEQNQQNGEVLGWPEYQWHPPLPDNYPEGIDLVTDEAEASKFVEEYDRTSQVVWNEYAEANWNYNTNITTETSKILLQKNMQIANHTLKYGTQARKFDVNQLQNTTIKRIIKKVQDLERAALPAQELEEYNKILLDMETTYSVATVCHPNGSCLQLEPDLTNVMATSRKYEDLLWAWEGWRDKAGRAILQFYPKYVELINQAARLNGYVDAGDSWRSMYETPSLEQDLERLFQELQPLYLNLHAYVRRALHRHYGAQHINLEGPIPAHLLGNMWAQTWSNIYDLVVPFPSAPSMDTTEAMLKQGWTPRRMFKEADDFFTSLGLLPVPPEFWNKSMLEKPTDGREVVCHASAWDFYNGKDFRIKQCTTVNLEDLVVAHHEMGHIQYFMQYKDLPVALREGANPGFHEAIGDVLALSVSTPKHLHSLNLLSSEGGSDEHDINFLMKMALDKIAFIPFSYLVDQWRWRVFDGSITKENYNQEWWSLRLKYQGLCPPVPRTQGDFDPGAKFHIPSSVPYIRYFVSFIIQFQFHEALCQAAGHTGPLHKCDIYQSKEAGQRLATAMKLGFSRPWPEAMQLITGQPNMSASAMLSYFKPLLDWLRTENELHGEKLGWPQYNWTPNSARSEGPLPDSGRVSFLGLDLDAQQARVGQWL

GGHDEMEEC gave an affinity in assay [1] of 48 µM.

For [Cu-GGH]^1- (peptide), the Ka in assay [2] was 59000 M⁻¹. Also, the IC50's (nM) for sACE-1 inhibition (fluorogenic substrate cleavage) in assay [3] turned out to be 17000 nM.
